The results in this text go back to the nanobody polyreactivity screen of Harvey et al. (2022).

This data set is described as follows: yeast display, Sf9 membrane polyspecificity reagent, FACS + sequencing; frameworks hold sequencing errors. Summed up:
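In a synthetic yeast display library (Saccharomyces cerevisiae BJ5465), nanobody expression was induced with galactose for 36–48 hours. FACS gates were set low and high (top ~1%) using anti-HA fluorescence for expression and streptavidin fluorescence for binding of the Sf9 membrane reagent. Each polyreactivity label is drawn from the gate of origin.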
Regarding “QVQLVESGGGLVQAGGSLRLSCAASGRITYYAMGWYRQAPGKERELVAAITWSGGRTYYADSVKGRFTISRDNAKNTVYLQMNSLKPEDTAVYYCAKTRIYSKHWTEPYFYRVDSWGQGTQVTVSS”, the “polyreactivity (PSR sort gate)” value is recorded as “high polyreactivity”.
As for “QVQLVESGGGLVQAGGSLRLSCAASGRIVGRYAMAWYRQAPGKERELVAAISSGTSTNYADSVKGRFTISRDNAKNTVYLQMNSLKPEDTAVYYCAVVLYRHWWYDYWGKGTQVTVSS”, the “polyreactivity (PSR sort gate)” value is listed as “high polyreactivity”.
The entry for “QVQLVESGGGLVQAGGSLRLSCAASGRIVSHYAMGWYRQAPGKERELVAAISRSGSTYYADSVKGRFTISRDNAKNTVYLQMNSLKPEDTAVYYCATRLYTVGPYGYWGQGTQVTVSS” is “low polyreactivity”.
In the case of “QVQLVESGGGLVQAGGSLRLSCAASGRIVYSNTMGWYRQAPGKERELVARIDTGGGSTYADSVKGRFTISRDNAKNTVYLQMNSLKPEDTAVYYCNKKGRWRSWGSTSLVSMDYWGQGTQVTVSS”, the “polyreactivity (PSR sort gate)” value was “low polyreactivity”.
Consider “QVQLVESGGGLVQAGGSLRLSCAASGRIVYYNVMGWYRQAPGKEREFVAAISTRTGSTYYADSVKGRFTISRDNAKNSVYLQMNRLKPEDTAVYYCAAPYRAYSYDYWGQGTQVTVSS”, for which the “polyreactivity (PSR sort gate)” value is on record as “high polyreactivity”.
The entry for “QVQLVESGGGLVQAGGSLRLSCAASGRIWVNALGWYRQAPGKEREFVAAISTSSASTYYADSVKGRFTISRDNAKNTVYLQMNSLKPEDTAVYYCASRYLGKKYYWFKTMDYWGQGTQVTVSS” is “high polyreactivity”; for “QVQLVESGGGLVQAGGSLRLSCAASGRIYGNAMGWYRQAPGKERELVAAISWSGGSTYYADSVKGRFTISRDNAKNTVYLQMNSLKPEDTAVYYCAATYPQGKYTYGRSYDYWGQGTQVTVSS” it is “high polyreactivity”; for “QVQLVESGGGLVQAGGSLRLSCAASGRIYGVYVMGWYRQAPGKERELVAAISWSGSHTYYADSVKGRFTISRDNAKNTVYLQMNSLKPEDTAVYYCKADSYPDYTGPGLDWYDYWGQGTQVTVSS” it is “low polyreactivity”.
The entry for “QVQLVESGGGLVQAGGSLRLSCAASGRIYGYAMGWYRQAPGKEREFVAVISRRGSSTYYADSVKGRFTISRDNAKNTVYLQMNSLKPEDTAVYYCAAGKFYYSIGPGYDYWGQGTQVTVSS” is “high polyreactivity”.
Regarding “QVQLVESGGGLVQAGGSLRLSCAASGRIYLYAMGWYRQAPRKERELVASISYSGGSTYYADSVKGRFTISRDNAKNTVYLQMNSLKPEDTAVYYCATRRAGSCPPYGYWGQGSQVTVSS”, the “polyreactivity (PSR sort gate)” value was “high polyreactivity”.
As for “QVQLVESGGGLVQAGGSLRLSCAASGRIYNRNAMGWYRQAPGKERDLVAAITYRGGSTYYADSVKGRFTISRDNAKNTVCLQMNSLKPEDTAVYYCAKDVKQWSVSASYRFGYWGQGTQVTVSS”, the “polyreactivity (PSR sort gate)” value is “high polyreactivity”.
The entry for “QVQLVESGGGLVQAGGSLRLSCAASGRIYPYAMGWYRQAPGKERELVAAITSRGGTTYYADSVKGRFTISRDNAKNTVYLQMNSLKPEDSAVYYCAADQHIRVSWYLQMYYWGQGTQVTVSS” is “low polyreactivity”; for “QVQLVESGGGLVQAGGSLRLSCAASGRIYRYAMGWYIQAPGKERELVASISYSGGSTYYADSVKGRFTISRDNAKNTVYLQMNSLKPEDTAVYYCAARTRHVHYGYWGQGTQVTVSS” it is “high polyreactivity”; for “QVQLVESGGGLVQAGGSLRLSCAASGRIYRYVMGWYRQAPGKERELVATITGRGGSTYYADSVKGRFTISRDNAKHTVYLQMNILKPEDTAVYYCAAAGRGSWTTYRFDYWGQGTQVTVSS” it is “high polyreactivity”.
On to “QVQLVESGGGLVQAGGSLRLSCAASGRIYSVYTMGWYRQAPGKERELVATISSGGRTNYADSVKGRFTISRDNAKNTVYLQMNSLKPEDTAVYYCAADWVYPPGLKDSVHFGEYDYWGQGTQVTVSS”, for which the “polyreactivity (PSR sort gate)” value is “low polyreactivity”.
The entry for “QVQLVESGGGLVQAGGSLRLSCAASGRIYSWYAMGWYRQAPGKERELVAVISRGVSTYYADSVKGRFTISRDNAKNTVYLQMNSLKPEDTAVYYCAAYSGGRYYYWGQGTQVTVSS” is “low polyreactivity”; for “QVQLVESGGGLVQAGGSLRLSCAASGRIYTYYAMGWYRQAPGKERELVAAISSGGSTYYADSVKGRFTISRDNAKNTVYLQMNSLKPEDTAVYYCNRVRRGVWRQDDYWGQGTQVTVSS” it is “high polyreactivity”; for “QVQLVESGGGLVQAGGSLRLSCAASGRIYWYYAMAWSRQAPGKERELVAAINSGGNTNYADSVKGRFTISRDNAKNTVYLKMNSLKPEDTAVYYCAKGRWPLLLSKDLYYWGQGTQVTVSS” it is “high polyreactivity”.
With “QVQLVESGGGLVQAGGSLRLSCAASGRLFNEYAMGWYRQAAGNVRALVAGITWSGGSTSYADSVKGRFTISRDYAKNTVYLQMIILKPEDTAVYYCAADVYRRLRRYRYFYWGQGTQVTVSS”, the “polyreactivity (PSR sort gate)” value was “low polyreactivity”.
The entry for “QVQLVESGGGLVQAGGSLRLSCAASGRLFWYNAMGWYRQAPGKERELVARITRGTRTYYADSVKGRFTISRDNAKNTVSLQMNSLKPEDTAVYYCRLQLSYTPHYDYWGQGTQVTVSS” is “high polyreactivity”.
The entry for “QVQLVESGGGLVQAGGSLRLSCAASGRLSDNVMGWYRQAPGKERELVAAISSSGGTTYYADSVKGRFTISRDNAKNTVYLQMNSLKPEDTAVYYCNARTRGKMDYWGQGTQVTVSS” is “high polyreactivity”.
The entry for “QVQLVESGGGLVQAGGSLRLSCAASGRMFGRYVMGWYRQAAGKERELVASISTRGGRTYYADSVKGRFTISRDIAKNTVYLQMNSLKPEDTAVYYCAVVYPRFGAYDYWGQCTQVTVSS” is “high polyreactivity”.
For the sequence “QVQLVESGGGLVQAGGSLRLSCAASGRMFKINAMGCYRQAPGKERELVASIRTSSGSTYSADSVKGRFTLSRDNAKNTVYLQMNSLKPEDTAVYYCATQYRYYNHFVTPFTRYGYWGQGTQVTVSS”, the “polyreactivity (PSR sort gate)” value is on record as “high polyreactivity”.
The entry for “QVQLVESGGGLVQAGGSLRLSCAASGRNFAKYAMGWYRQAPGKERELVAAINSSGGSTYYADSVKGRFTISRDNAKNTVYLQMNSLKPEDTAVYYCAALGIGSYRRYSGYDYWGQGTQVTVSS” is “low polyreactivity”.
With “QVQLVESGGGLVQAGGSLRLSCAASGRNFAWYAMGWYRQAPGKEREFVAAITYRAARTYYADSVKGRFTISRDNAKNTVYLQMNSLKPEDTAVYYCNAVGFDQPRYYYWGQGTQVTVSS”, the “polyreactivity (PSR sort gate)” value is listed as “high polyreactivity”.
For “QVQLVESGGGLVQAGGSLRLSCAASGRNFAYYAMGWYRQEPGKERELVAVISKSGGSTNYADSVKGRFTISRDNAKNTVYLQMNSLKPEDTAVYYCAKRAYDPEMYYWGQGTQVTVSS”, the “polyreactivity (PSR sort gate)” value was “low polyreactivity”.
In the case of “QVQLVESGGGLVQAGGSLRLSCAASGRNFFRYAMGWYRQAPGKERELVATISRSGGTYADSVKGRFTISRDNAKNTVYLQMNSLKPEDTAVYYCNARTLYAYITRDYWGQGTQVTVSS”, the “polyreactivity (PSR sort gate)” value is “high polyreactivity”.
As for “QVQLVESGGGLVQAGGSLRLSCAASGRNFFTYAMGWYRQAPGKERELVASITGSGGSTYYADSVKGRFTISRDNAKYTVYLQMNSLKPEDTAVYYCAAALFRRQLYRKFYYWGQGTQVTVSS”, the “polyreactivity (PSR sort gate)” value is “low polyreactivity”.
Turning to “QVQLVESGGGLVQAGGSLRLSCAASGRNFGWYAMGWYRQATGKERELVAAITSGSRTSYADSVKGRFTISRDNAKNTVYLQMNSLKPEDTAVYYCARRSYGIYYRSADDSWGQGTQVTVSS”, the “polyreactivity (PSR sort gate)” value is on record as “high polyreactivity”.
The entry for “QVQLVESGGGLVQAGGSLRLSCAASGRNFHKYAMGWYRQAPGKERELVAAITGSGVRTYYADSVKGRFTISRDNAKNTVYLQMNSLKPEDTAVYYCNADSYYGNGDYWGQGTQVTVSS” is “high polyreactivity”; for “QVQLVESGGGLVQAGGSLRLSCAASGRNFIVNAMGWYRQAHGKEREFVAAITSRGGITYYADSVKGRFTISRDNAKNTVYLQMNSLKPEDTAVYYCAAGYITWGSGNWVVTPYDYWGQGTQVTVSS” it is “high polyreactivity”; for “QVQLVESGGGLVQAGGSLRLSCAASGRNFNFNTIGWYRQAAGKEREFLAAITFRGVRTYYADSVKGRFTISRDNAKNTVYLQMISLKPEDTAVYYCATQARLYGGYDRYAGSYDYWGQGTQVTVSS” it is “high polyreactivity”.
With “QVQLVESGGGLVQAGGSLRLSCAASGRNFPRYAMGWYRQAPGKERELVAAISWRGGSTRYADSVKGRFTISRDNEKNTVYLQMNSLKPEDTAVYYCAAEFWFFPGWAYEYWGQGTQVTVSS”, the “polyreactivity (PSR sort gate)” value was “high polyreactivity”.
Regarding “QVQLVESGGGLVQAGGSLRLSCAASGRNFPTKAMGWYREAPGTERELVAAITRSGSTYYADSVKGRFTISRDNAKNTVYLQMNSLKPEDTAVYYCAAYAYIFLDWGGYPYYLYEYDDWGQGTQVTVSS”, the “polyreactivity (PSR sort gate)” value is “low polyreactivity”.
The entry for “QVQLVESGGGLVQAGGSLRLSCAASGRNFRRYTMGWYRQAPGKERELVATISSGGSTYADSVKGRFTISRDNAKNTVYLQMNSVKPEDSAVYYCAAQTWGSGYGNIGRRRHDYWGQGTQVTVSS” is “high polyreactivity”; for “QVQLVESGGGLVQAGGSLRLSCAASGRNFVYNAMGWYRQAPGKERELVAAITWGGGSTYYADSVKGRFTISRDKAKNTVYLQMNSLKPEDTAVYYCAADGVRKFPNSRYDYWGQGTQVTVSS” it is “low polyreactivity”.
The entry for “QVQLVESGGGLVQAGGSLRLSCAASGRNFWFNAMGWYRQAPGKVRELVAAISGGSTNYADSVKGRFTISRDNAKNHVYLQMNSLKPEDTAVYYCAARYLLRYNWGQGTQVTVSS” is “high polyreactivity”.
The entry for “QVQLVESGGGLVQAGGSLRLSCAASGRNFYRNAMGWSRQAPGKERELVAAITGSGGITYYADSVKGRFTISRDNAKYTVYLQMNRLKPEDTGVYYCNARYYSHRYDYWGQGTQVTVSS” is “high polyreactivity”; for “QVQLVESGGGLVQAGGSLRLSCAASGRNFYSNAMGWYRQAPGKERELVAAIRWRDGSTYYADSVKGRFTISRDNAKNTVYLQMNSLKPEDTAVYYCAAVYWGEEYEYWGQGTQVTVSS” it is “low polyreactivity”.
Take “QVQLVESGGGLVQAGGSLRLSCAASGRNILPYAMGWYRPSPGKERELVAAISVSGVITYYAESVKGRFTISRDNAKNTVYLQMNSLKPEDTEVYYCASDYTPRRWGRLYDYWGQGTQVTVSS”: the “polyreactivity (PSR sort gate)” value was “low polyreactivity”.
